From patent US20240117005A1 (COUNCIL OF THE QUEENSLAND INSTITUTE OF MEDICAL RESEARCH, published 2024)
Starred links: 1 amine or outer side, 2 acyl side, 3 side chain; linkers in the order of their positions; H or OH if unused. Positions of bridges follow the written chain, without caps; N, C: chain ends. No end group written: not given here. *: point of attachment. TBMB = c1c(C[*:1])cc(C[*:3])cc1C[*:2]; Myristyl = CCCCCCCCCCCCCC*

B1: DL-2 nanoparticle (DL-2 bicyclic peptide encapsulated in a lipid nanoparticle) (peptide)
peptide: ACLTFIFCRLRKGRCMMDVKK
modifications: N-terminal myristyl; cysteines covalently bound to the TBMB scaffold (bicyclic); peptide packaged in a POPC / cholesterol / DSPE-PEG lipid nanoparticle
notes: Same peptide as DL-2, in a different formulation; also called DL-2-NP

What was measured:
[1] = molecular target: T1, importin-α1 (IMPα1) (human, UniProt P52292 2-529); assay: DUOLINK proximity ligation in permeabilised MDA-MB-231 cells; loss of the PDL1-Ac:IMPα1 complex, DL-2 10 to 0.00975 µM
[2] = molecular target: T1, importin-α1 (IMPα1); assay: DUOLINK proximity ligation; IC50 of DL-2-NP against IC50 of naked DL-2 for the PDL1:IMPα1 complex
[3] = molecular target: T1, importin-α1 (IMPα1); assay: DUOLINK proximity ligation in permeabilised MDA-MB-231 cells; loss of the PDL1:IMPα1 complex, DL-2-NP 10 to 0.3 nM

Binder | IC50 [1] [nM] | fold more potent than DL-2 [2] [fold] | IC50 [3] [nM]
Myristyl-ACLTFIFCRLRKGRCMMDVKK (linker 2-8-15 via TBMB, also called DL-2-TBMB; DL-2-Batch 1) [DL-2 bicyclic peptide (Myristyl-ACLTFIFCRLRKGRCMMDVKK on TBMB scaffold)] | 39 |  | 
B1 |  | ~39 | 1
